Changes are numbered by the printed parent chain. Names and notes keep the numbering of the source. Blank lines part the entries; values can stand above or below the binder they belong to.
Key:
ETS1 296-441;p52-RHD = biological target: T1, ETS1 296-441;p52-RHD (human;human, UniProt P14921;Q00653 296-441;35-329, |); assay: ITC; 100 uM p52-RHD in cell; no enhancement over p52-DSD; ITC: 25 mM Tris-HCl pH 7.5, 200 mM NaCl, 3 mM TCEP, 8 °C. EMSA: 20 mM Tris-HCl pH 7.5, 150 mM NaCl, 4 °C, 1 h, 4-16% native PAGE; conditions: protein: recombinant;recombinant; tags: GST removed (PreScission, pGEX-6P-1);GST removed (PreScission, pGEX-6P-1); copies: 1;2; 5' overhang 1 nt at each end, 25 bp
T1 sequence 1: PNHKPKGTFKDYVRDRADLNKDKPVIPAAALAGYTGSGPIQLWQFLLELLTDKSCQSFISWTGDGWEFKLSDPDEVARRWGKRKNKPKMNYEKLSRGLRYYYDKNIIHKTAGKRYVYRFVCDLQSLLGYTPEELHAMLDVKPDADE
T1 sequence 2: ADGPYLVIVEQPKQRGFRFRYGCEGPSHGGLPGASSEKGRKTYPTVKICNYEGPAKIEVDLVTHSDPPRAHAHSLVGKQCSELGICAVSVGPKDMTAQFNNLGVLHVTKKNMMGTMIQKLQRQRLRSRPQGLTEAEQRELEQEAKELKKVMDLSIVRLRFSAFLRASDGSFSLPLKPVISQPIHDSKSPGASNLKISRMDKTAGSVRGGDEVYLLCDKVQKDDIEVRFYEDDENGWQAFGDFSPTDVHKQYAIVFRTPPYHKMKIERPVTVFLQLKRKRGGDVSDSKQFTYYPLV

ETS1 296-441;p52-DSD [1] = biological target: T2, ETS1 296-441;p52-DSD (human;human, UniProt P14921;Q00653 296-441;226-328, |); assay: ITC; 100 uM p52-DSD in cell; greater affinity than ETS1 alone; ITC: 25 mM Tris-HCl pH 7.5, 200 mM NaCl, 3 mM TCEP, 8 °C. EMSA: 20 mM Tris-HCl pH 7.5, 150 mM NaCl, 4 °C, 1 h, 4-16% native PAGE; conditions: protein: recombinant;recombinant; tags: GST removed (PreScission, pGEX-6P-1);GST removed (PreScission, pGEX-6P-1); copies: 1;2; 5' overhang 1 nt at each end, 25 bp
T2 sequence 1: T1 sequence 1
T2 sequence 2: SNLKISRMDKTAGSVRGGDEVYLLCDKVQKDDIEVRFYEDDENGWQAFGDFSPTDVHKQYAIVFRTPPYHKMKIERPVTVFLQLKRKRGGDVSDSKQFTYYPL

ETS1 296-441;p52-DSD [2] = biological target: T2, ETS1 296-441;p52-DSD; assay: ITC; 100 uM p52-DSD in cell; flanks make no contribution to affinity; ITC: 25 mM Tris-HCl pH 7.5, 200 mM NaCl, 3 mM TCEP, 8 °C. EMSA: 20 mM Tris-HCl pH 7.5, 150 mM NaCl, 4 °C, 1 h, 4-16% native PAGE; conditions: protein: recombinant;recombinant; tags: GST removed (PreScission, pGEX-6P-1);GST removed (PreScission, pGEX-6P-1); copies: 1;2; blunt
ETS1_(331–441), P14921 = biological target: T3, ETS1_(331–441), P14921; assay: ITC
T3 chain: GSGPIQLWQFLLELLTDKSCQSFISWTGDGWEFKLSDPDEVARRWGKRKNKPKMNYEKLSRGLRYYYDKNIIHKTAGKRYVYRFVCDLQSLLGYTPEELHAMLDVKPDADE

[3] = biological target: T4, Flag-tagged ETS1_(331–441), P14921; assay: FLAG pull-down, band densitometry; conditions: chain shown with the change;; parent: est. 1.0; read off a plot
T4 chain: T3 chain

ETS1_(331–441) [4] = biological target: T5, ETS1_(331–441) (human, UniProt P14921 331-441); assay: ITC; 8 °C; 25 mM Tris-HCl pH 7.5, 200 mM NaCl, 3 mM TCEP; 20 μM ETS1 fragment in the cell titrated with 200 μM p52-RHD in the syringe; single-site model
T5 chain: T3 chain

[5] = biological target: the molecule itself; assay: cross-linking + native gel or EMSA; cysteine mutants mixed at a molar ratio of 1:2, DTT removed, disulfide cross-linking with 30 µM CuCl2 and 100 µM phenanthroline for 1 h at 25 °C; 4–16% gradient blue native PAGE; reversed with 20 mM DTT
[6] = biological target: the molecule itself; assay: crystal structure; p52-RHD, ETS1_(331–441) and a 15 bp -146C>T TERT promoter DNA mixed 1:1:1; crystals at 18 °C in 100 mM HEPES pH 7.0, 2.0 M ammonium sulfate
ETS1_(296–441) [7] = biological target: T6, ETS1_(296–441) (human, UniProt P14921 296-441); assay: ITC
T6 chain: T1 sequence 1

ETS1_(331–441) [8] = biological target: T5, ETS1_(331–441); assay: ITC
ETS1_(296–441) [9] = biological target: T6, ETS1_(296–441); assay: ITC; 8 °C; 25 mM Tris-HCl pH 7.5, 200 mM NaCl, 3 mM TCEP; 20 μM ETS1 fragment in the cell titrated with 200 μM p52-RHD in the syringe; single-site model
ETS1_(296–441) [10] = biological target: T6, ETS1_(296–441); assay: ITC
p52-RHD;ETS1 331-441 = biological target: T7, p52-RHD;ETS1 331-441 (human;human, UniProt Q00653;P14921 35-329;331-441, |); assay: X-ray crystallography; ETS1 contacts the DNA; p52-DBSD disordered and p52-DSD bound to ETS1; ITC: 25 mM Tris-HCl pH 7.5, 200 mM NaCl, 3 mM TCEP, 8 °C. EMSA: 20 mM Tris-HCl pH 7.5, 150 mM NaCl, 4 °C, 1 h, 4-16% native PAGE; conditions: protein: recombinant;recombinant; tags: GST removed (PreScission, pGEX-6P-1);GST removed (PreScission, pGEX-6P-1); chain copies: 2;1; 5' overhang 1 nt at each end, 15 bp
T7 sequence 1: T1 sequence 2
T7 sequence 2: T3 chain

B1: 25 bp -146C>T TERT promoter DNA (dsDNA)
DNA 1: GTCCCGACCCCTTCCGGGTCCCCGGC
DNA 2: CGCCGGGGACCCGGAAGGGGTCGGGA
- binding result (ETS1 296-441;p52-RHD): binds
- binding result (ETS1 296-441;p52-DSD [1]): binds

B2: 10 bp -146C>T TERT promoter DNA (dsDNA)
DNA 1: CCCTTCCGGG
DNA 2: CCCGGAAGGG
- binding result (ETS1 296-441;p52-DSD [2]): binds

B5: p52-RHD (R241C, C57S, and C83S) (domain or fragment, human, UniProt Q00653 35-329, looked up)
chain: T1 sequence 2 with C23S, C49S, R207C
modifications: disulfide from Cys241 to Cys343 of ETS1_(331–441) (E343C and C350S) after cross-linking with CuCl2 and phenanthroline
- binding result [5]: binds

B7: p52-RHD (residues 35–329), Q00653 K298A (protein)
chain: T1 sequence 2 with K264A
- ratio to parent [3]: 0.69

B8: p52-RHD (residues 35–329) (domain or fragment, human, UniProt Q00653 35-329, looked up)
chain: T1 sequence 2
notes: In the crystal only residues 226-328 (p52-DSD) are ordered; two p52-DSD form a homodimer through a crystallographic 2-fold axis; also called WT p52
- binding result [6]: binds
- Ka (ETS1_(296–441) [7]): 52400 M⁻¹
- Ka (ETS1_(331–441) [8]): 148000 M⁻¹
- Kd (ETS1_(331–441) [4]): 6.76 µM
- fold reduction of binding against ETS1 (331–441) (ETS1_(296–441) [9]): 3 fold
- Kd (ETS1_(296–441) [10]): 19.1 µM

B10: 15 bp -146C>T TERT promoter DNA (dsDNA)
DNA 1: GCCCTTCCGGGTCCCC
DNA 2: CGGGGACCCGGAAGGG
- binding result (p52-RHD;ETS1 331-441): binds

Further lines, results first:

- Kd (ETS1_(331–441), P14921; chain shown with the change): 33.2 µM
- Ka (ETS1_(331–441), P14921; chain shown with the change;, parent: 1.48E5 ± 1.07E4): 30100 M⁻¹
- ratio to parent [3]: 0.26
B3: p52-RHD (residues 35–329), Q00653 R241A; M297A; K298A (protein)
chain: T1 sequence 2 with R207A, M263A, K264A

- fold reduction of binding against WT p52 (ETS1_(331–441) [4]): 5 fold
B4: p52-RHD RMK>A (domain or fragment)
chain: T1 sequence 2 with R207A, M263A, K264A

- ratio to parent [3]: 0.72
B6: p52-RHD (residues 35–329), Q00653 M297A (protein)
chain: T1 sequence 2 with M263A

- ratio to parent [3]: 0.51
B9: p52-RHD (residues 35–329), Q00653 R241A (protein)
chain: T1 sequence 2 with R207A

— publication PMC6085347, “Structural basis for reactivating the mutant TERT promoter by cooperative binding of p52 and ETS1” (Nature Communications, 2018)
